# Data from patent publication US8476054B2, “Thrombin-like enzyme of Agkistrodon acutus” (Konruns Pharmaceutical Co., Ltd., priority 2008, dated 2013).
# “Also recorded” adds a separate entry of the source.
# B1: hemocoagulase (protein)
# chain 1: DCSSGWSSYEGHCYKVFKQSKTWADAESFCTKQVNGGHLVSLESSGEADFVGQLLAQKLKSAKLHVWLGLRAQNKEKQCSLQWSDGSSLSYENWLEEESKKCLGVHLETGFHKWENFYCEQQDPFVCEA
# chain 2: DCPSDWSSYEGHCYKPFNEPKNWADAENFCTKQHTGGHLVSFQSTEEADFVVKLAFQTFDYGLFWFGLSKLWNQCNWQWSNAAMLKYTDWAEESYCVYFKSTNNKWRSLTCRMLANFVCEFQA
# Tests used:
# [1] = test system: hemocoagulase of Agkistrodon acutus; assay: effect of PMSF on the agglutination time of the hemocoagulase; assay type: biochemical
# Experimental: (§1) 1% bovine fibrinogen (Sigma Company) solution was prepared with physiological saline.
# (§2) The operational steps of the experiment were as follows:
# (§3) (1) 2 ml 1% bovine fibrinogen solution was kept at constant temperature of 37° C. for 5 min;
# (§4) (2) 3 tubes were respectively marked with 1 #, 2 #, 3 #, then 200 μl hemocoagulase solution (5 u/ml) diluted one time with distilled water was added into each of 3 tubes;
# (§5) (3) 10 μl distilled water was added into tube 1#, 10 μl isopropanol was added into tube 2#, and 10 μl PMSF was added into tube 3#, and the tubes were kept at constant temperature of 37° C. in water bath for 5 min;
# (§6) (4) Observations of the agglutination experiments were carried out separately in the order of the numbering of the above tubes. 200 μl 1% bovine fibrinogen solution at constant temperature was added into each of the tubes respectively, followed by counting time immediately and shaking the tube gently; then the tube was kept to stand in water bath of 37° C. The agglutination reaction was observed. When the solution was completely coagulated, time-counting was finished.
# [2] = isoelectric focusing electrophoresis analysis; assay type: physicochemical
# Experimental: (§7) The above dialyzed enzyme solution was loaded on a pre-equilibrated DEAE-Sepharose Fast Flow anion exchange chromatography column, and the column was eluted with 0.01M, pH7.4 PBS. Then, the stepwise elution was conducted with 0.01M, pH7.4 PBS containing 0.02M, 0.04M, 0.06M, 1.0M NaCl respectively, and the second eluting peak of 0.06M NaC1 eluent was collected to obtain 1,050 ml of eluent. […] The 1,050 ml eluent was ultra-filtrated to 135 ml by Millipore Pellicon 2 tangential flow ultra-filter (0.1M^2 cut off 5 k membrane). The 135 ml ultra-filtrated solution was poured into a dialysis bag and dialyzed against deionized water for 24 hours, and the deionized water was changed 3 times during the dialysis. After dialysis, the volume of the enzyme solution is 159 ml, and the determined content of the total protein in the solution is 240 mg, the determined specific activity of the enzyme is 195 u/mg protein and a final yield of 0.8%. The protein has a HPLC purity of 98.2%, and two protein bands were shown by reduced SDS-PAGE with the molecular weight of about 15 kDa and 14.5 kDa, respectively. The enzyme has an isoelectric point(pI) of 5.5 by isoelectric focusing electrophoresis analysis.
# bovine fibrinogen [3] = assay: enzymatic activity assay (bovine fibrinogen assay or normal human plasma assay); assay type: biochemical; details: hemocoagulase of Example 2 further purified by HPLC
# Experimental: as §7, with “The protein has a HPLC purity of 98.2%, and two protein bands were shown by reduced SDS-PAGE with the molecular weight of about 15 kDa and 14.5 kDa, respectively. The enzyme has an isoelectric point(pI) of 5.5 by isoelectric focusing electrophoresis analysis.” left out
# 1 ml 1.0% bovine fibrinogen (Sigma company) prepared with physiological saline was added to a tube, kept at 37±0.5° C. in water bath for 3 min, followed by adding 1 ml 37±0.5° C. preheated enzymatic solution to be determined was added into the tube while counting time immediately; if white flocs appeared in the bovine fibrinogen solution by shaking it within 120±30 seconds, the activity unit of the enzymatic solution is determined to be 1 u/ml. […]
# human fibrinogen = assay: hydrolyzing human fibrinogen with the hemocoagulase, SDS-PAGE; assay type: biochemical; details: for band of alpha subunit of human fibrinogen: hemocoagulase 1 unit, 37° C.
# Experimental: A 4 mg/ml human fibrinogen solution was prepared with 50 mM Tris-HCl buffer solution(pH 7.4). 0.5 ml human fibrinogen solution were respectively added into each of 5 tubes; 1 activity unit of the purified hemocoagulase was separately added into each of 4 tubes according to 4 different time intervals of heat preservation time for hydrolyzing, and the tubes were kept at 37° C. in water bath for 4 h, 2 h, 1 h and 0.5 h, respectively; after that, SDS-PAGE was carried out immediately to observe the hydrolyzing degree of the human fibrinogen. Meanwhile, another tube containing 0.5 ml of the human fibrinogen solution was kept at 37° C. in water bath for 4 h as a control.
# bovine fibrinogen [4] = assay: agglutination experiment, time to complete coagulation of bovine fibrinogen solution; assay type: biochemical; details: 200 μl hemocoagulase solution (5 u/ml), 200 μl 1% bovine fibrinogen, 37° C.
# Experimental: as §1, §2, §3, §4, §5, §6
Molecule,"Agglutination time ([1]; 10 μl PMSF (4 mg/ml in isopropanol), 200 μl hemocoagulase solution (5 u/ml), 200 μl 1% bovine fibrinogen, 37° C.) [s]",inhibition of the activity of the hemocoagulase ([1]; 100 ppm PMSF),isoelectric point (pI) [2],enzyme activity of the solution (bovine fibrinogen [3]) [u/ml],hydrolysis of the alpha chain (alpha subunit) of human fibrinogen (human fibrinogen),band of alpha subunit of human fibrinogen (human fibrinogen; treated for 0.5 h and 1 h),band of alpha subunit of human fibrinogen (human fibrinogen; treated for 2 h and 4 h),Agglutination time (bovine fibrinogen [4]; 10 μl distilled water) [s],Agglutination time (bovine fibrinogen [4]; 10 μl isopropanol) [s]
"O=S(=O)(F)Cc1ccccc1 [PMSF, Phenylmethanesulfonyl fluoride]",> 600,completely inhibits,–,–,–,–,–,–,–
B1,–,–,5.5,10,able to hydrolyze the alpha chain of human fibrinogen; also recorded: has the function of hydrolyzing the alpha subunit of the human fibrinogen,became gradually light,disappeared completely,50,50
